According to US20220362357A1, “Synergistic Combinations of Amino Acid Depletion Agent Sensitizers (AADAS) and Amino Acid Depletion Agents (AADA), and Therapeutic Methods of Use Thereof” (STICHTING RADBOUD UNIVERSITAIR MEDISCH CENTRUM, priority 2018, published 2022):

Legend:
Experiment in all cases: PDX ALL cells co-cultured on hTERT MSCs, ASNase x ibrutinib dilution matrix, microscopy
Type in all cases: cell-based, human
[1] = tested on: PDX m3810; conditions: m3810 (7 d), ibrutinib B0=0 to B9=100
Description: (§1) After 2-4 months these mice developed full blown leukemia with an immunophenotype and genetic composition that in the large majority of cases is identical to the original material at the time of injection.
(§2) Briefly, hTERT immortalized MSCs were seeded in either a 384 wells format (microscopy) or a 96 wells format (7AAD staining) and allowed to settle for 24 hours prior to the addition of ALL xenografts. […] After 3 and 7 days of incubation, cell death was analyzed using microscopy using live cells staining or flowcytometry using 7AAD to discriminate between live or dead cells.

[2] = tested on: PDX m4136; conditions: m4136 (3 d), ibrutinib B0=0 to B9=100
Description: as §1, §2

[3] = tested on: PDX m4206; conditions: ibrutinib B0=0 to B9=100
Description: as §1, §2

[4] = tested on: PDX m764; conditions: m764 (3 d), ibrutinib B0=0 to B9=100
Description: as §1, §2

[5] = tested on: PDX m838; conditions: m838 (3 d), ibrutinib B0=0 to B9=100
Description: as §1, §2

[6] = tested on: PDX m877; conditions: m877 (3 d), ibrutinib B0=0 to B9=100
Description: as §1, §2

B1: ASNase: native E. coli ASNase (NCBI WP_000394140.1), used in the in vitro studies (protein, UniProt P00805 23-348, looked up)
L-asparaginase 2: LPNITILATGGTIAGGGDSATKSNYTVGKVGVENLVNAVPQLKDIANVKGEQVVNIGSQDMNDNVWLTLAKKINTDCDKTDGFVITHGTDTMEETAYFLDLTVKCDKPVVMVGAMRPSTSMSADGPFNLYNAVVTAADKASANRGVLVVMNDTVLDGRDVTKTNTTDVATFKSVNYGPLGYIHNGKIDYQRTPARKHTSDTPFDVSKLNELPKVGIVYNYANASDLPAKALVDAGYDGIVSAGVGNGNLYKSVFDTLATAAKTGTAVVRSSRVPTGATTQDAEVDDAKYGFVASGTLNPQKARVLLQLALTQTKDPQQIQQIFNQY
In the case of B1, the “live cells by automated microscopy (table names no quantity)” value (“live cells … (table names no quantity)” for short) ([1]; ASNase A5=1) is reported as 1136, the “live cells … (table names no quantity)” value ([1]; ASNase A6=3) is reported as 1251 and the “live cells … (table names no quantity)” value ([1]; ASNase A7=10) is reported as 686. For the same molecule, the “live cells … (table names no quantity)” value ([1]; ASNase A8=32) was 87, the “live cells … (table names no quantity)” value ([1]; ASNase A9 (A=100)) was 4 and the “live cells … (table names no quantity)” value ([2]; ASNase A1=0.01) was 1992. For the same molecule, the “live cells … (table names no quantity)” value ([2]; ASNase A2=0.03) was 1998, the “live cells … (table names no quantity)” value ([2]; ASNase A3=0.1) was 1980 and the “live cells … (table names no quantity)” value ([2]; ASNase A4=0.3) was 1892. For the same molecule, the “live cells … (table names no quantity)” value ([2]; ASNase A5=1) was 2157, the “live cells … (table names no quantity)” value ([2]; ASNase A6=3) was 2652 and the “live cells … (table names no quantity)” value ([2]; ASNase A7=10) was 2136. For the same molecule, the “live cells … (table names no quantity)” value ([2]; ASNase A8=32) was 2172, the “live cells … (table names no quantity)” value ([2]; ASNase A9 (A=100)) was 39 and the “live cells … (table names no quantity)” value ([3]; m4206 (3 d), ASNase A1=0.01) was 3112. For the same molecule, the “live cells … (table names no quantity)” value ([3]; m4206 (3 d), ASNase A2=0.03) was 2484, the “live cells … (table names no quantity)” value ([3]; m4206 (3 d), ASNase A3=0.1) was 3106 and the “live cells … (table names no quantity)” value ([3]; m4206 (3 d), ASNase A4=0.3) was 2323. The “live cells … (table names no quantity)” value ([3]; m4206 (3 d), ASNase A5=1) was 2141, the “live cells … (table names no quantity)” value ([3]; m4206 (3 d), ASNase A6=3) was 2304 and the “live cells … (table names no quantity)” value ([3]; m4206 (3 d), ASNase A7=10) was 1979. For the same molecule, the “live cells … (table names no quantity)” value ([3]; m4206 (3 d), ASNase A8=32) was 301, the “live cells … (table names no quantity)” value ([3]; m4206 (3 d), ASNase A9 (A=100)) was 69 and the “live cells … (table names no quantity)” value ([3]; m4206 (7 d), ASNase A1=0.01) was 56. The “live cells … (table names no quantity)” value ([3]; m4206 (7 d), ASNase A2=0.03) was 52, the “live cells … (table names no quantity)” value ([3]; m4206 (7 d), ASNase A3=0.1) was 86 and the “live cells … (table names no quantity)” value ([3]; m4206 (7 d), ASNase A4=0.3) was 37. The “live cells … (table names no quantity)” value ([3]; m4206 (7 d), ASNase A5=1) was 83, the “live cells … (table names no quantity)” value ([3]; m4206 (7 d), ASNase A6=3) was 87 and the “live cells … (table names no quantity)” value ([3]; m4206 (7 d), ASNase A7=10) was 68. The “live cells … (table names no quantity)” value ([3]; m4206 (7 d), ASNase A8=32) was 24, the “live cells … (table names no quantity)” value ([3]; m4206 (7 d), ASNase A9 (A=100)) was 35 and the “live cells … (table names no quantity)” value ([4]; ASNase A1=0.01) was 546. The “live cells … (table names no quantity)” value ([4]; ASNase A2=0.03) was 1126, the “live cells … (table names no quantity)” value ([4]; ASNase A3=0.1) was 109 and the “live cells … (table names no quantity)” value ([4]; ASNase A4=0.3) was 250. The “live cells … (table names no quantity)” value ([4]; ASNase A5=1) was 915, the “live cells … (table names no quantity)” value ([4]; ASNase A6=3) was 887 and the “live cells … (table names no quantity)” value ([4]; ASNase A7=10) was 594. The “live cells … (table names no quantity)” value ([4]; ASNase A8=32) was 157, the “live cells … (table names no quantity)” value ([4]; ASNase A9 (A=100)) was 2 and the “live cells … (table names no quantity)” value ([5]; ASNase A1=0.01) was 2793. The “live cells … (table names no quantity)” value ([5]; ASNase A2=0.03) was 3003, the “live cells … (table names no quantity)” value ([5]; ASNase A3=0.1) was 3109 and the “live cells … (table names no quantity)” value ([5]; ASNase A4=0.3) was 2839. For the same molecule, the “live cells … (table names no quantity)” value ([5]; ASNase A5=1) was 2454, the “live cells … (table names no quantity)” value ([5]; ASNase A6=3) was 3049 and the “live cells … (table names no quantity)” value ([5]; ASNase A7=10) was 2431. The “live cells … (table names no quantity)” value ([5]; ASNase A8=32) was 175, the “live cells … (table names no quantity)” value ([5]; ASNase A9 (A=100)) was 18 and the “live cells … (table names no quantity)” value ([6]; ASNase A1=0.01) was 5090. For the same molecule, the “live cells … (table names no quantity)” value ([6]; ASNase A2=0.03) was 4877, the “live cells … (table names no quantity)” value ([6]; ASNase A3=0.1) was 4455 and the “live cells … (table names no quantity)” value ([6]; ASNase A4=0.3) was 4789. For the same molecule, the “live cells … (table names no quantity)” value ([6]; ASNase A5=1) was 5008, the “live cells … (table names no quantity)” value ([6]; ASNase A6=3) was 5125 and the “live cells … (table names no quantity)” value ([6]; ASNase A7=10) was 4350. For the same molecule, the “live cells … (table names no quantity)” value ([6]; ASNase A8=32) was 1205 and the “live cells … (table names no quantity)” value ([6]; ASNase A9 (A=100)) was 2.
